{
  "source": "paper PMC7085636",
  "about": "“A Graphene-PEDOT:PSS Modified Paper-Based Aptasensor for Electrochemical Impedance Spectroscopy Detection of Tumor Marker”",
  "biological_target": "carcinoembryonic antigen (CEA) (UniProt P06731 35-685)",
  "sequence (P06731 35-685)": "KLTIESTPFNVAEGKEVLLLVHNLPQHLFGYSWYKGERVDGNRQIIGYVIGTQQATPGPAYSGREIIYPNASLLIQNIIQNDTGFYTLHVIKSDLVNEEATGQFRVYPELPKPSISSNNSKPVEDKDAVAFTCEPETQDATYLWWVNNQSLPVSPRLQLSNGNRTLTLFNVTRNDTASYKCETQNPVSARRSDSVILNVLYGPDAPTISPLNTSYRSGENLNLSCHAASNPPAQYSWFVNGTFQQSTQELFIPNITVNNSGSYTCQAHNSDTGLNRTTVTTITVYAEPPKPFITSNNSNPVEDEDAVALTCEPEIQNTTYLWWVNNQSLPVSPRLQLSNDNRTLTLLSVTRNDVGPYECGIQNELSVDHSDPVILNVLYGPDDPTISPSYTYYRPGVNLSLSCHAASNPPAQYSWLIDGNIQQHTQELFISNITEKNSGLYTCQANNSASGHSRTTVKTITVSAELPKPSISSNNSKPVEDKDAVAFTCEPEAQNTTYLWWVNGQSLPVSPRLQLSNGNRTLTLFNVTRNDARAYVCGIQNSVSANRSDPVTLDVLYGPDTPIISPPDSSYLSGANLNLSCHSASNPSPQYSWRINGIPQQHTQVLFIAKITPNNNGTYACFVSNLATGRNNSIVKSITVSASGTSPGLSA",
  "assay": "electrochemical impedance spectroscopy (aptasensor); PBS; linear 0.77-14 ng/mL, LOD 0.45 ng/mL, saturated above 21 ng/mL; PBS pH 7.4 or undiluted human serum; surface blocked with 1% BSA; K3[Fe(CN)6] and KCl listed as reagents; binding temperature not stated",
  "settings": "protein: commercial",
  "data": [
    {"binder": "GACGATAGCGGTGACGGCACAGACGTCCCGCATCCTCCG (ssDNA, 5'-NH2)", "note": "[CEA DNA aptamer]", "values": [
      {"measurement": "binding result", "value": "binds"}
    ]}
  ]
}
